Source: US20230383269A1 (DSM AUSTRIA, published 2023)

Target: the molecule itself
Assay: Blue-Native-PAGE, oligomeric conformation (self-association of identical chains)
Description: Comparison of the native molecular weight (oligomeric conformation) between single purified zearalenone-cleaving polypeptides was done via Blue-Native-PAGE. Dilutions of the elutes were supplied with not denaturating loading dye (e.g. 2× loading dye: 0.126 M tris(hydroxymethyl)aminomethan/hydrochloric acid pH 6.8, 20.0% glycerol, 4.0% Coomassie Blue G-250) and separated on a 4-15% polyacrylamid gel under native conditions (e.g. Mini-PROTEAN® Tetra Cell System, 1658004EDU+4-15% Mini-PROTEAN® TGX™ Precast Protein Gels, 4561083EDU, Bio-Rad Laboratories GmbH) (5× Anode Buffer: 0.125 M Tris(hydroxymethyl)aminomethane, 0.960 M Glycine, 1× Kathode Buffer: Anode Buffer+0.02% Coomassie Blue G250; 200 V, 40 minutes). The peptide bands were visualized by Coomassie staining. The oligomeric state of selected zearalenone-cleaving polypeptides was determined by size exclusion chromatography, SEC-MALS or X-Ray crystallography. Homo-dimers (e.g. SEQ ID NO. 1) migrated faster across the BN-PAGE gel matrix, while homo-tetramers (e.g. SEQ ID NO. 2-35) were retained in the gel matrix to a higher extent. The oligomeric conformation of the zearalenone-cleaving polypeptides was determined relatively to the migration of homo-dimeric and homo-tetrameric peptides.

B1: parent alpha/beta hydrolase of SEQ ID NO: 1 (enzyme)
chain: MTDQSPETRDIFVPHAFEEQQVDLGEVVMNYVEAGSADHPALLLLPEQTGSWWSYEPVIGLLAESFHVFAVDIRGQGRSTWTPKRYSLDNFGNDLVRFISLVVKRPVIVSGNSSGGVLAAWLSAYAMPGQIRAALCEDTPFFASELVPAHGHSVRQAAGPAFELYRNFLGDQWSVADWDGFAAAAKASPSKIMSLFPSSDEPPQNLKEYDPEWARAFFEGTVALHCPHDLMLSQVKTPILITHHARAVDPHSGDLLGALSDFQAERAQAIIESAGVPVEYASFPDALHMMHQFEPERFAEVLTSWVARLPADTPGAHHHHHH
notes: homo-dimer; also called wildtype parent alpha/beta hydrolase; zearalenone-cleaving polypeptide
B1: binds.
